From patent US20190224282A1

Assays:
[1] = biological target: cation-independent mannose-6-phosphate/IGF-II receptor on GM4668 human skin fibroblasts (human) (UniProt P11717); test: cell-based or functional assay
[2] = biological target: cation-independent mannose-6-phosphate/IGF-II receptor on GM4668 human skin fibroblasts (human) (UniProt P11717)
[3] = biological target: cation-independent mannose-6-phosphate/IGF-II receptor on GM4668 human skin fibroblasts (human) (UniProt P11717); remark: listed apart in the source

Chain of UniProt P11717 (P11717 41-2491): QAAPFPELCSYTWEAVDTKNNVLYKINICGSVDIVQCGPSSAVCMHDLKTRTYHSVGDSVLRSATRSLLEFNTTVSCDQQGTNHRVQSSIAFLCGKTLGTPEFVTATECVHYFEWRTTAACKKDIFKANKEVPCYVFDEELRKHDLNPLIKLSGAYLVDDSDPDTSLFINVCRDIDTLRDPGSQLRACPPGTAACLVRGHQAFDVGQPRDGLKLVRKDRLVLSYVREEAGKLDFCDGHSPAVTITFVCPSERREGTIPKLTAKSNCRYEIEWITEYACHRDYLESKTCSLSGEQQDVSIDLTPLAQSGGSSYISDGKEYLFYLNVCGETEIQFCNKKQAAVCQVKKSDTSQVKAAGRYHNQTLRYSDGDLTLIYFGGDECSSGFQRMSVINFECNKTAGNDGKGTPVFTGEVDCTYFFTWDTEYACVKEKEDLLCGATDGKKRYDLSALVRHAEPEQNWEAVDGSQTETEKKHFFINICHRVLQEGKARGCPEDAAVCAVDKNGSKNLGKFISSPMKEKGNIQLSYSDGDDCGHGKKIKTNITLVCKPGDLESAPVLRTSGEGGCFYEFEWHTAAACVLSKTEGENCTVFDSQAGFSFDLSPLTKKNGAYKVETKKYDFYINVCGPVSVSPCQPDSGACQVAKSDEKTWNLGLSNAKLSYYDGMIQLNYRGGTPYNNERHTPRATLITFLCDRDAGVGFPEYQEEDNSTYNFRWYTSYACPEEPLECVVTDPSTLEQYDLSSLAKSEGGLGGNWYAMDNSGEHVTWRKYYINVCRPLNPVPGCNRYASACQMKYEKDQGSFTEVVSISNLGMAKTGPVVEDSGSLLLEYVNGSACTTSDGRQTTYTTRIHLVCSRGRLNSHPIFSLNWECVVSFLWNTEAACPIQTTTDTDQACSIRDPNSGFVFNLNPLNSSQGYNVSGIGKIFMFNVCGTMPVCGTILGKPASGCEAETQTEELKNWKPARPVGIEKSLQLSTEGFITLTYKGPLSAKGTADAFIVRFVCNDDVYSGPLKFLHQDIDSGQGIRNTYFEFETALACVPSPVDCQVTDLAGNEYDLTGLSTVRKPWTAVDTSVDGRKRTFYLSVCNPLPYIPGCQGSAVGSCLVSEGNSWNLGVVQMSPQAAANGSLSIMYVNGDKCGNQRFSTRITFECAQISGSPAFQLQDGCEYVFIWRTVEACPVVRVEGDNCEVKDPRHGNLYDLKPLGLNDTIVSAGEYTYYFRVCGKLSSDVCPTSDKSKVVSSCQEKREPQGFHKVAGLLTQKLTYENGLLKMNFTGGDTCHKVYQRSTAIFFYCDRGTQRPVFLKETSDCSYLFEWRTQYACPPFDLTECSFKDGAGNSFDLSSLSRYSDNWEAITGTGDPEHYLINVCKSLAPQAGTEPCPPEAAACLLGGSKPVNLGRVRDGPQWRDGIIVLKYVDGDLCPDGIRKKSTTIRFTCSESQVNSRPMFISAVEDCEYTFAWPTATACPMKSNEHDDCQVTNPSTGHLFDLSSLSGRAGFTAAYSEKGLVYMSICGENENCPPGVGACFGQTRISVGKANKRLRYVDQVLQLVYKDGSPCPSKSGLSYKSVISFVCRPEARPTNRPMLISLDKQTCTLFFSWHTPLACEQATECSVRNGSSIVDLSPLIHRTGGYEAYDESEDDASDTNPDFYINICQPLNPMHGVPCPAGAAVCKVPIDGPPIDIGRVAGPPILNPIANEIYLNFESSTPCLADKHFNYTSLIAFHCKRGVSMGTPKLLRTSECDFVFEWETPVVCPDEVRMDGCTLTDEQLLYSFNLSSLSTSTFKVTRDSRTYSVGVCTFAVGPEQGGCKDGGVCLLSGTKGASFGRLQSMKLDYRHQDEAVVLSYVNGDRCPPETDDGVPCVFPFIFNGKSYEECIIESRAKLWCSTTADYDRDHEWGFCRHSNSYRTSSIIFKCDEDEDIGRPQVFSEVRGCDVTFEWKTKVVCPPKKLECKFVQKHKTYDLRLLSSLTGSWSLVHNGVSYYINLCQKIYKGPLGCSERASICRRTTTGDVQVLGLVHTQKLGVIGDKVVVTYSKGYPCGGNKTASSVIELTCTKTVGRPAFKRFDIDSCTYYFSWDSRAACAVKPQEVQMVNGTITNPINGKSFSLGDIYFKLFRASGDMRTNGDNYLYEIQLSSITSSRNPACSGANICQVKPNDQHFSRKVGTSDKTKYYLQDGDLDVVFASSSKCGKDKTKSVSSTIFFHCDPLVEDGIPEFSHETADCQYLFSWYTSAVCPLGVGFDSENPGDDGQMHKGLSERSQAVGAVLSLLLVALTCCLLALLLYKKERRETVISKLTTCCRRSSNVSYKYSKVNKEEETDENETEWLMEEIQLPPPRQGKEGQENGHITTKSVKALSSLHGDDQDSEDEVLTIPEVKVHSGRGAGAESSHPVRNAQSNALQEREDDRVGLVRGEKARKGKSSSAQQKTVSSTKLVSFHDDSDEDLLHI

With “HEK GUS-GILT (from UniProt P08236 23-651)” the Uptake (units/mg), MPS VII fibroblasts, 21 hours [1] was 1430 units/mg.

“CHO GUSΔC18-GILTΔ1-7 (from UniProt P08236 23-633)” showed a % IGF-II +M6P inhibition of uptake [1] of 100%, a +IGF-II (units/mg): uptake with IGF-II, 22.5 hours [1] of 473 units/mg and a +IGF-II (units/mg): uptake with excess IGF-II, 18 hours [1] of 258 units/mg. The +IGF-II +M6P (units/mg): uptake with both inhibitors, 22.5 hours [1] was 0 units/mg, the +IGF-II Uptake (units/mg), 21 hours [1] was 1010 units/mg and the +M6P (units/mg): uptake with 8 mM M6P, 22.5 hours [1] was 639 units/mg. The +M6P (units/mg): uptake with excess M6P, 18 hours [1] was 412 units/mg, the Uptake (units/mg), GM4668 fibroblasts, 18 hours [1] was 704 units/mg and the Uptake (units/mg), MPS VII fibroblasts, 21 hours [1] was 4080 units/mg. It also gave an Uptake (units/mg), fibroblasts, 22.5 hours [1] of 1580 units/mg.

“HEK GUS-GILTY27L (from UniProt P08236 23-651)” showed an Uptake (units/mg), MPS VII fibroblasts, 21 hours [1] of 1510 units/mg.

“CHO GUS-GILTΔ1-7 (from UniProt P08236 23-651)” showed a +IGF-II (units/mg): uptake with excess IGF-II, 18 hours [1] of 84 units/mg, a +M6P (units/mg): uptake with excess M6P, 18 hours [1] of 223 units/mg and an Uptake (units/mg), GM4668 fibroblasts, 18 hours [1] of 310 units/mg.

GUS-GILTΔ1-7 (from UniProt P08236) gave a cell-associated GUS activity in GM4668 fibroblast lysate after uptake of about 350-600 units of ConA-purified enzyme in the presence of excess IGF-II as competitor (Units/mg protein) [2] of 13.5 and a cell-associated GUS activity in GM4668 fibroblast lysate after uptake of about 350-600 units of ConA-purified enzyme, no competitor (Units/mg protein) [2] of 245.

“HEK GUS-GILTF19SE12K (from UniProt P08236 23-651)” was tested, and the % IGF-II +M6P inhibition of uptake [1] was 100%, the +IGF-II (units/mg): uptake with IGF-II, 22.5 hours [1] was 22 units/mg and the +IGF-II +M6P (units/mg): uptake with both inhibitors, 22.5 hours [1] was 0 units/mg. It also gave a +IGF-II Uptake (units/mg), 21 hours [1] of 388 units/mg, a +M6P (units/mg): uptake with 8 mM M6P, 22.5 hours [1] of 846 units/mg and an Uptake (units/mg), MPS VII fibroblasts, 21 hours [1] of 4230 units/mg. It also gave an Uptake (units/mg), fibroblasts, 22.5 hours [1] of 1230 units/mg.

“GILT-GUS with Δ1-7 and Y27L mutations in the IGF-II portion, Leishmania-expressed (from UniProt P08236 23-651)” showed a cell-associated GUS activity in GM4668 fibroblasts, fold over unmodified GUS [1] of 5 fold.

Work on “CHO GUS (from UniProt P08236 23-651) (enzyme)” yielded a +IGF-II (units/mg): uptake with excess IGF-II, 18 hours [1] of 336 units/mg, a +M6P (units/mg): uptake with excess M6P, 18 hours [1] of 1 units/mg and an Uptake (units/mg), GM4668 fibroblasts, 18 hours [1] of 352 units/mg.

Work on “HEK GUSΔC18-GILTΔ1-7 (from UniProt P08236 23-633)” yielded a +IGF-II Uptake (units/mg), 21 hours [1] of 1210 units/mg and an Uptake (units/mg), MPS VII fibroblasts, 21 hours [1] of 5190 units/mg.

For “HEK GUS-GILTF19S (from UniProt P08236 23-651)”, the % IGF-II +M6P inhibition of uptake [1] was 99.1%, the +IGF-II (units/mg): uptake with IGF-II, 22.5 hours [1] was 217 units/mg and the +IGF-II +M6P (units/mg): uptake with both inhibitors, 22.5 hours [1] was 15 units/mg. For the same substance, the +IGF-II Uptake (units/mg), 21 hours [1] was 439 units/mg, the +M6P (units/mg): uptake with 8 mM M6P, 22.5 hours [1] was 952 units/mg and the Uptake (units/mg), MPS VII fibroblasts, 21 hours [1] was 4730 units/mg. It also gave an Uptake (units/mg), fibroblasts, 22.5 hours [1] of 1590 units/mg.

Work on “GUS-IGF-II fusion protein (GUS-GILT), Leishmania-expressed” yielded a cell-associated GUS activity in GM4668 fibroblast lysate after about 18 h uptake, 150 U enzyme per well, no competitor [3] of 24.1 U/mg lysate, a cell-associated GUS activity in GM4668 fibroblast lysate after uptake of about 350-600 units of ConA-purified enzyme in the presence of excess IGF-II as competitor (Units/mg protein) [2] of 7.93 and a cell-associated GUS activity in GM4668 fibroblast lysate after uptake of about 350-600 units of ConA-purified enzyme, no competitor (Units/mg protein) [2] of 55.1. The cell-associated GILT-GUS in GM4668 fibroblasts, no IGF-II (units/mg lysate) [1] was greater than 24, the cell-associated GILT-GUS in GM4668 fibroblasts, with excess IGF-II [1] was 5.4 U and the cell-associated GUS activity in GM4668 fibroblasts, fold over unmodified GUS [1] was 10 fold.

GUS (enzyme) was tested, and the cell-associated GUS activity in GM4668 fibroblast lysate after about 18 h uptake, 150 U enzyme per well (untagged comparison) [3] was 4.5 U/mg lysate and the cell-associated GUS activity in GM4668 fibroblast lysate after uptake of about 350-600 units of ConA-purified enzyme (untagged comparison) (Units/mg protein) [2] was 3.38.
